Target: SARS-CoV-1 spike protein (FL-GCN4-Avi-His, biotinylated) (SARS-CoV-1 (SARS-CoV), strain , UniProt P59594, stabilised, biotin on the Avi tag)
Test: BLI

B1: CV27 IgG (antibody, V domains shown)
VH: QVQLVESGGGVVQPGRSLRLSCAASGFTFSSYAMHWVRQAPGKGLEWVALISYDGSNKYYADSVKGRFTISRDNSKNTLYLQMNSLRAEDTAVYYCARSFGGSYYYGMDVWGQGTTVTVSS
VL: QSALTQPASVSGSPGQSITISCTGTSSDVGGYNYVSWYQQHPGKAPKLMIYDVSNRPSGVSNRFSGSKSGNTASLTISGLQAEDEADYYCSSYTSSSTPYVFGTGTKVTVL
B1: binds.

Source: doi:10.1101/2022.01.24.477625 (bioRxiv, 2022)
